{
  "source": "paper PMC7768483",
  "about": "“Gbx2 Is Required for the Migration and Survival of a Subpopulation of Trigeminal Cranial Neural Crest Cells”",
  "binders": {"B1": {"name": "NRP1 oligonucleotide (dsDNA)", "DNA 1": "AACATTCCAAAAATTATCAACCATTTCAGGAATACATTTCATAAAAGCTAGATTGAGTTCTGCTTGTTTTTTATT", "DNA 2": "AATAAAAAACAAGCAGAACTCAATCTAGCTTTTATGAAATGTATTCCTGAAATGGTTGATAATTTTTGGAATGTT"}},
  "target": "GBX2 (full-length) (mouse, UniProt P48031 1-348)",
  "sequence (P48031 whole entry)": "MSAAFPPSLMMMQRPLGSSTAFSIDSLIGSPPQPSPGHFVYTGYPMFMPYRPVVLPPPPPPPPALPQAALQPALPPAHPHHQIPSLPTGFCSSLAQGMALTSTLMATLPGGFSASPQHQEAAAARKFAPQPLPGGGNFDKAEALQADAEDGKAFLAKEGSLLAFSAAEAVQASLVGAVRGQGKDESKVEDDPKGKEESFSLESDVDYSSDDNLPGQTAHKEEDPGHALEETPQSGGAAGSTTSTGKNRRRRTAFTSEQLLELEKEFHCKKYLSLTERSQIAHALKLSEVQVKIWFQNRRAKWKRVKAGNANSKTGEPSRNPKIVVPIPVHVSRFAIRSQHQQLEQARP",
  "assay": "EMSA; 720 nM GBX2, 940 pM probe; supershift with GBX2 antibody; 2X binding buffer: 20 mM Tris-HCl pH 7.4, 50 mM KCl, 1 mM DTT, 10% glycerol, 200 µg/mL BSA, 2.2 µg/mL poly dI/dC; 30 min at 25 °C; 6% native PAGE, Tris-glycine",
  "conditions": "protein: recombinant; label: 32P end label (probe); blunt",
  "data": [
    {"binder": "B1", "values": [
      {"measurement": "binding result", "value": "binds"}
    ]}
  ]
}
